B1: LINE1-full (parent)
chain: UACGUAGGUGGUUUUCCCCUGAUAGUGCUAAGGGGGCCUGGAAGUUUGGACUGGGCAGAGCUCAACACAGCGUGGCAAAGUGGCUGUGGCUAGACUGCCUCUCUGGAUUCCUCGUCACUCAGCAGGGCAUCUCUGAGAGAAAUGCC

In this series the parent is B1. As to the kind of experiment: self-cleavage, relative activity (ratio to wild type); higher = more cleavage; in vitro, sequencing; the parent is a self-cleaving ribozyme.
With UACGUAGGUGGUUUUCCCCUGAUAGUGCUAAGGGGGCCUGGAAGCUUGGACUGGGCAGAGCUCAACACAGCGUGGCAAAGUGGCUGUGGCUAGACUGCCUCUCUGGAUUCCUCGUCACUCAGCAGGGCAUCGCUGAGAGAAAUGCC [U45C U132G], the self-cleavage came to 1.33.

UACGUAGGUGGUUUUCCCCUGAUAGUGCUAAGGGGGCCUGGAAGCUUGGACUGGGCAGAGCUCAACACAGCGUGGCAAAGAGGCUGUGGCUAGACUGCCUCUCUGGAUUCCUCGUCACUCAGCAGGGCAUCUCUGAGAGAAAUGCC [U45C U81A]: the self-cleavage is 2.03.

With UACGUAGGUGGUUUUCCCCUGAUAGUGCUAAGGGGGCCUGGAAGCUUGGACUGGGCAGAGCUCAACACAGCGUGGCAAAGUGGCUGUGGCUAGACCGCCUCUCUGGAUUCCUCGUCACUCAGCAGGGCAUCUCUGAGAGAAAUGCC [U45C U96C], the self-cleavage worked out at 0.12.

As for UACGUAGGUGGUUUUCCCCUGAUAGUGCUAAGGGGGCCUGGAAGCUUGGACUGGGCAGAGCUCAACACAGCGGGGCAAAGUGGCUGUGGCUAGACUGCCUCUCUGGAUUCCUCGUCACUCAGCAGGGCAUCUCUGAGAGAAAUGCC [U45C U73G], the self-cleavage was 1.22.

Take UACGUAGGUGGUUUUCCCCUGAUAGUGCUAAGGGGGCCUGGAAGCUUGGACUGGGCAGAGCUCAACACAGCGUGGCAAAGUGGCUGUGGCUAGACUGCCUCUCUGGAUUCCUCGUCACUCAGCAGGGCAGCUCUGAGAGAAAUGCC [U45C U130G]: the self-cleavage is 1.9.

In the case of UACGUAGGUGGUUUUCCCCUGAUAGUGCUAAGGGGGCCUGGAAGCUUGGACUGGGCAGAGCUCAACACAGCGUGGCAAAGUGGCUGUGGCUAGACUGCCUCUCUGGAUUCCUCGUCACUCAGCAGGGCACCUCUGAGAGAAAUGCC [U45C U130C], the self-cleavage came out at 1.39.

In the case of UACGUAGGUGGUUUUCCCCUGAUAGUGCUAAGGGGGCCUGGAAGCUUGGACUGGGCAGAGCUCAACACAGCGUGGCAAAGUGGCUGUGGCUAGACUGCCUCUCUGGAUUCCUCGUCACUCAGCAGGGCAACUCUGAGAGAAAUGCC [U45C U130A], the self-cleavage came to 1.66.

On to UACGUAGGUGGUUUUCCCCUGAUAGUGCUAAGGGGGCCUGGAAGCUUGGACUGGGCAGAGCUCAACACAGCGUGGCAAAGUGGCCGUGGCUAGACUGCCUCUCUGGAUUCCUCGUCACUCAGCAGGGCAUCUCUGAGAGAAAUGCC [U45C U85C], for which the self-cleavage is 0.17.

Consider UACGUAGGUGGUUUUCCCCUGAUAGUGCUAAGGGGGCCUGGAAGCUUGGACUGGGCAGAGCUCAACACAGCGUGGCAAAGUGGCUGUGGCUAGACUGCCUCUCAGGAUUCCUCGUCACUCAGCAGGGCAUCUCUGAGAGAAAUGCC [U45C U104A], for which the self-cleavage was 1.43.

As for UACGUAGGUGGUUUUCCCCUGAUAGUGCUAAGGGGGCCUGGAAGCUUGGACUGGGCAGAGCUCAACACAGCGUGGCAAAGUGGCUGUGGCUAGACUGCCUCUCUGGAUUCCUCGCCACUCAGCAGGGCAUCUCUGAGAGAAAUGCC [U45C U115C], the self-cleavage amounted to 2.14.

Consider UACGUAGGUGGUUUUCCCCUGAUAGUGCUAAGGGGGCCUGGAAGCUUGGACUGGGCAGAGCUCAACACAGCGUGGCAAAGUGGCUGUGGCUAGACUGCCUCUCUGGAUUCCUCGGCACUCAGCAGGGCAUCUCUGAGAGAAAUGCC [U45C U115G], for which the self-cleavage was determined as 2.1.

As to UACGUAGGUGGUUUUCCCCUGAUAGUGCUAAGGGGGCCUGGAAGCUUGGACUGGGCAGAGCUCAACACAGCGUGGCAAAGUGGCUGUGGCAAGACUGCCUCUCUGGAUUCCUCGUCACUCAGCAGGGCAUCUCUGAGAGAAAUGCC [U45C U91A], the self-cleavage stood at 0.55.

On to UACGUAGGUGGUUUUCCCCUGAUAGUGCUAAGGGGGCCUGGAAGCUUGGACUGGGCAGAGCUCAACACAGCGUGGCAAAGUGGCUGUGGCCAGACUGCCUCUCUGGAUUCCUCGUCACUCAGCAGGGCAUCUCUGAGAGAAAUGCC [U45C U91C], for which the self-cleavage is 0.69.

Regarding UACGUAGGUGGUUUUCCCCUGAUAGUGCUAAGGGGGCCUGGAAGCUUGGACUGGGCAGAGCUCAACACAGCGUGGCAAAGUGGCUGUGGCGAGACUGCCUCUCUGGAUUCCUCGUCACUCAGCAGGGCAUCUCUGAGAGAAAUGCC [U45C U91G], the self-cleavage was 0.

For UACGUAGGUGGUUUUCCCCUGAUAGUGCUAAGGGGGCCUGGAAGCUUGGACUGGGCAGAGCUCAACACAGCGUGGCAAAGUGGCUGUGGCUAGACUGCCUCUCUGGAUUCCCCGUCACUCAGCAGGGCAUCUCUGAGAGAAAUGCC [U45C U112C], the self-cleavage stood at 1.27.

Regarding UACGUAGGUGGUUUUCCCCUGAUAGUGCUAAGGGGGCCUGGAAGCUUGGACUGGGCAGAGCUCAACACAGCGUGGCAAAGUGGCUGUGGCUAGACUGCCUCUCUGGAUUCCUCGUCACCCAGCAGGGCAUCUCUGAGAGAAAUGCC [U45C U119C], the self-cleavage was determined as 2.12.

For UACGUAGGUGGUUUUCCCCUGAUAGUGCUAAGGGGGCCUGGAAGCUUGGACUGGGCAGAGCUCAACACAGCGUGGCAAAGUGGCUGUGGCUAGACUGCCUCUCUGGAUUCCUCGUCACACAGCAGGGCAUCUCUGAGAGAAAUGCC [U45C U119A], the self-cleavage is 1.3.

Take UACGUAGGUGGUUUUCCCCUGAUAGUGCUAAGGGGGCCUGGAAGCUUGGACUGGGCAGAGCUCAACACAGCGUGGCAAAGUGGCUGCGGCUAGACUGCCUCUCUGGAUUCCUCGUCACUCAGCAGGGCAUCUCUGAGAGAAAUGCC [U45C U87C]: the self-cleavage came to 0.23.

On to UACGUAGGUGGUUUUCCCCUGAUAGUGCUAAGGGGGCCUGGAAGCUUGGACUGGGCAGAGCUCAACACAGCGUGGCAAAGUGGCUGAGGCUAGACUGCCUCUCUGGAUUCCUCGUCACUCAGCAGGGCAUCUCUGAGAGAAAUGCC [U45C U87A], for which the self-cleavage worked out at 0.09.

For UACGUAGGUGGUUUUCCCCUGAUAGUGCUAAGGGGGCCUGGAAGCUUGGACUGGGCAGAGCUCAACACAGCGUGGCAAAGUGGCUGUGGCUAGACUGCCUCUCUGGAUCCCUCGUCACUCAGCAGGGCAUCUCUGAGAGAAAUGCC [U45C U109C], the self-cleavage was determined as 0.61.

Source of the values: the RNAGym collection of RNA variant scans (doi:10.7554/elife.90254).
